Reference: doi:10.1101/2021.03.28.437443

Target: uncleaved full-length membrane-anchored HIV-1 JR-FL Env(-) glycoprotein (HIV-1 (strain JR-FL))
Test: cryo-EM structure

Substance: uncleaved full-length membrane-anchored HIV-1 JR-FL Env(-) glycoprotein (natural protein)
- stoichiometry N: 3
